# Laboratory results taken from US20160015827A1.
# Values joined by “and” are separate entries in the source; they are usually repeats but may differ in a detail not shown here. Identical values can stand only once.
# Key:
# [1] = biological target: human folate receptor alpha (FRA) (human) (UniProt P15328); assay: flow cytometry on NCI-H2110 cells, secondary antibody alone (background)
# [2] = biological target: human folate receptor alpha (FRA) (human) (UniProt P15328); assay: flow cytometry on SK-OV-3 cells, secondary antibody alone (background)
# [3] = biological target: human folate receptor alpha (FRA) (human) (UniProt P15328); assay: flow cytometry on OVCAR-3B cells, secondary antibody alone (background)
# [4] = biological target: human folate receptor alpha (FRA) (human) (UniProt P15328); assay: flow cytometry on NCI-H292 cells, secondary antibody alone (background)
# [5] = biological target: human folate receptor alpha (FRA) (human) (UniProt P15328); assay: flow cytometry on NCI-H2110 cells, 10 µg/mL
# [6] = biological target: human folate receptor alpha (FRA) (human) (UniProt P15328); assay: flow cytometry on NCI-H292 cells, 10 µg/mL
# [7] = biological target: human folate receptor alpha (FRA) (human) (UniProt P15328); assay: flow cytometry on SK-OV-3 cells, 10 µg/mL
# [8] = biological target: human folate receptor alpha (FRA) (human) (UniProt P15328); assay: flow cytometry on OVCAR-3 cells, 10 µg/mL
# human folate receptor alpha (FRA) (human), sequence (P15328 25-234 limits assumed): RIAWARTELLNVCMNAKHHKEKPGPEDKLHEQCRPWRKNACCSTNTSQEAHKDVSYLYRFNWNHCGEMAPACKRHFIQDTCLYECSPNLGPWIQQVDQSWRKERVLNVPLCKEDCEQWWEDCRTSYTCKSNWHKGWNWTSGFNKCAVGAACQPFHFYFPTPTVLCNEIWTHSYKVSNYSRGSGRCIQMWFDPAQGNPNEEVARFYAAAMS
MFI [1] [MFI],MFI [2],MFI [3] [MFI],MFI [4] [MFI],MFI [5] [MFI],MFI [6] [MFI],MFI [7] [MFI],MFI [8] [MFI],Substance
5,6 MFI and 5 MFI,5,6,–,–,–,–,goat F(ab')2-anti-human IgG (H+L)-RPE or goat anti-human IgG-RPE (antibody)
–,–,–,–,5,6,6,7,isotype control antibody human IgG
